PMC2323369
pKd: −log10 of the molar value.

How the values were obtained:
Test in all cases: not stated; Table 1, GST-RBD, GDP-RhoA, GTP-Cdc42, GTP-Rac1; the caption names competition ELISA and SPR but not which gave these limits
GST-Cdc42 = GST-Cdc42 (UniProt P60953)
GST-Rac1 = GST-Rac1 (UniProt P63000)
GST-RhoA (wild type) = GST-RhoA (wild type) (UniProt P61586)

Measured: pKd

GST-RhoA (wild type), sequence (P61586 whole entry): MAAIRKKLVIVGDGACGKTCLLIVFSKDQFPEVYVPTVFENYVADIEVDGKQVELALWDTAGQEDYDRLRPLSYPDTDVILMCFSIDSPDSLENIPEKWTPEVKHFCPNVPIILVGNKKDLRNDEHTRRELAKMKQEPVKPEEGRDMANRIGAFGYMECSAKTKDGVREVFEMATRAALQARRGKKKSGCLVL
GST-Cdc42, sequence (P60953 whole entry): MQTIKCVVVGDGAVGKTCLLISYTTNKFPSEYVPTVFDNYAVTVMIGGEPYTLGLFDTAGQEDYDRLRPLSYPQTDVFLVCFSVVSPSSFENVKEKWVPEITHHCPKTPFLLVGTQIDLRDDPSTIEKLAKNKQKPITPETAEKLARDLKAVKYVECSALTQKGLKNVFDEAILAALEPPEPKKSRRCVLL

GST-RBD (Rho binding domain of Rhotekin fused to GST) (domain or fragment)
< 4.30: all assays above
